In patent US8889615B2, “Methods for promoting epithelialization and healing of chronic wounds” (New York University, priority 2009, dated 2014) one finds keratinocyte migration data, which are given here for one molecule.

In the test the test system is Primary human keratinocytes. Briefly: Keratinocyte migration, wound scratch assay. To be noted: 20 μmol/L LiCl or 25 ng/ml of EGF, 24 and 48 hours. The format is cell-based. On the procedure: Primary human keratinocytes were grown to 80% confluency. Twenty-four hours before the experiment cells were transferred to basal KBM medium (Life Technologies, Inc., Grand Island, N.Y.). Before the scratch, cells were treated with 8 μg/ml mitomycin C (ICN, Irvine, Calif.) for 1 hour and washed with basal media. Scratches were performed as previously described (Lee, et al., J Mol. Biol., 345:1083-1097 (2005)). Cells were incubated with 20 μmol/L LiCl or 25 ng/ml of EGF for 24 and 48 hours, rephotographed, and cell migration was quantified as previously described (Lee, et al., J. Mol. Biol., 345:1083-1097 (2005); Zavadil. et al., EMBO J., 23:1155-1165 (2004)). Thirty measurements were taken for each experimental condition and distance coverage by cells moving into the scratch wound area was quantified. Three images were analyzed per condition, per time point, and averages and standard deviations were calculated.

B1: EGF: epidermal growth factor, promotes keratinocyte migration (protein, UniProt P01133 23-1207, looked up)
Pro-epidermal growth factor: PQHWSCPEGTLAGNGNSTCVGPAPFLIFSHGNSIFRIDTEGTNYEQLVVDAGVSVIMDFHYNEKRIYWVDLERQLLQRVFLNGSRQERVCNIEKNVSGMAINWINEEVIWSNQQEGIITVTDMKGNNSHILLSALKYPANVAVDPVERFIFWSSEVAGSLYRADLDGVGVKALLETSEKITAVSLDVLDKRLFWIQYNREGSNSLICSCDYDGGSVHISKHPTQHNLFAMSLFGDRIFYSTWKMKTIWIANKHTGKDMVRINLHSSFVPLGELKVVHPLAQPKAEDDTWEPEQKLCKLRKGNCSSTVCGQDLQSHLCMCAEGYALSRDRKYCEDVNECAFWNHGCTLGCKNTPGSYYCTCPVGFVLLPDGKRCHQLVSCPRNVSECSHDCVLTSEGPLCFCPEGSVLERDGKTCSGCSSPDNGGCSQLCVPLSPVSWECDCFPGYDLQLDEKSCAASGPQPFLLFANSQDIRHMHFDGTDYGTLLSQQMGMVYALDHDPVENKIYFAHTALKWIERANMDGSQRERLIEEGVDVPEGLAVDWIGRRFYWTDRGKSLIGRSDLNGKRSKIITKENISQPRGIAVHPMAKRLFWTDTGINPRIESSSLQGLGRLVIASSDLIWPSGITIDFLTDKLYWCDAKQSVIEMANLDGSKRRRLTQNDVGHPFAVAVFEDYVWFSDWAMPSVMRVNKRTGKDRVRLQGSMLKPSSLVVVHPLAKPGADPCLYQNGGCEHICKKRLGTAWCSCREGFMKASDGKTCLALDGHQLLAGGEVDLKNQVTPLDILSKTRVSEDNITESQHMLVAEIMVSDQDDCAPVGCSMYARCISEGEDATCQCLKGFAGDGKLCSDIDECEMGVPVCPPASSKCINTEGGYVCRCSEGYQGDGIHCLDIDECQLGEHSCGENASCTNTEGGYTCMCAGRLSEPGLICPDSTPPPHLREDDHHYSVRNSDSECPLSHDGYCLHDGVCMYIEALDKYACNCVVGYIGERCQYRDLKWWELRHAGHGQQQKVIVVAVCVVVLVMLLLLSLWGAHYYRTQKLLSKNPKNPYEESSRDVRSRRPADTEDGMSSCPQPWFVVIKEHQDLKNGGQPVAGEDGQAADGSMQPTSWRQEPQLCGMGTEQGCWIPVSSDKGSCPQVMERSFHMPSYGTQTLEGGVEKPHSLLSANPLWQQRALDPPHQMELTQ
modifications: Pro-epidermal growth factor
notes: epidermal growth factor, promotes keratinocyte migration
Take B1: the keratinocyte migration result is reported as “promoted”.
